Source: patent publication US20250326865A1, “C-MET PROTEIN-BINDING PEPTIDE COMPLEX” (PeptiDream Inc., priority 2021, published 2025)
Positions of bridges follow the written chain, without caps; N, C: chain ends. Non-standard residues stand in square brackets, D forms with d. Residues, ends and D or L forms follow the SMILES beside them. Primed or numbered codes have the meaning given here. Chains are numbered I, II in the order given. No end group written: not given here. PEG12 = NCCOCCOCCOCCOCCOCCOCCOCCOCCOCCOCCOCCOCCC(=O)O; NMeF = CN[C@@H](Cc1ccccc1)C(=O)O; Ahp(2) = CCCCC[C@H](N)C(=O)O; NMeC = CN[C@@H](CS)C(=O)O; Ahp′ = not defined here; Abu = CC[C@H](N)C(=O)O

Biological target: T1, c-Met (Homo sapiens, UniProt P08581)
T1 construct: endogenous in cells; host or cells: A431 (human)
Assay: Phospho-c-Met AlphaLISA assay (c-Met agonist activity) in A431 cells
Format: cell-based
Details: 15 minutes of stimulation; for C-Met Agonist Activity (2 or 1): c-Met phosphorylation (Tyr1234/1235) in A431 cells, maximum signal induced by HGF = 100%
Experimental: To evaluate the activation potency (c-Met agonist activity) of c-Met of the peptide complex of the present invention, the phosphorylation of c-Met was verified. Human A431 cells were cultured in DMEM high glucose, GlutaMAX (registered trademark) Supplement, pyruvate (Thermo Fisher Scientific), containing 10% FBS (Gibco). After cells were detached using Accutase (Innovative cell technologies), they were seeded into a 96-well plate at 10000 cells per well and cultured overnight. The next day, for starvation, the culture medium was changed to DMEM high glucose, GlutaMAX (registered trademark) Supplement, pyruvate (Thermo Fisher Scientific), containing 0.1% BSA (Sigma-Aldrich), and the cells were cultured overnight. Then, the peptide complex synthesized in Example 3 or Recombinant Human HGF Protein (R&D systems) as a control was added, and after 15 minutes of stimulation, cells were lysed in a Lysis Buffer provided in the AlphaLISA (registered trademark) SureFire (registered trademark) Ultra™ Phospho-c-Met (Tyr1234/1235) kit (PerkinElmer). The assay was performed according to the kit protocol, and a SpectraMax (registered trademark) Paradigm (registered trademark) multimode microplate reader (Molecular Devices, LLC.) was used for signal detection. […] In the same manner, the C50 value was calculated by GraphPad Prism as the concentration of peptide showing 50% activity of the signal induced by HGF. […] Further, for a complex (GFs_c-Met-00014336-PEG13 dimer; complex no. 49 in Table 4) of a peptide (SEQ ID NO: 34) and a linker (SEQ ID NO: 37), a graph of c-Met agonist activity is shown in FIG. 1.

T1 sequence (P08581 25-1390): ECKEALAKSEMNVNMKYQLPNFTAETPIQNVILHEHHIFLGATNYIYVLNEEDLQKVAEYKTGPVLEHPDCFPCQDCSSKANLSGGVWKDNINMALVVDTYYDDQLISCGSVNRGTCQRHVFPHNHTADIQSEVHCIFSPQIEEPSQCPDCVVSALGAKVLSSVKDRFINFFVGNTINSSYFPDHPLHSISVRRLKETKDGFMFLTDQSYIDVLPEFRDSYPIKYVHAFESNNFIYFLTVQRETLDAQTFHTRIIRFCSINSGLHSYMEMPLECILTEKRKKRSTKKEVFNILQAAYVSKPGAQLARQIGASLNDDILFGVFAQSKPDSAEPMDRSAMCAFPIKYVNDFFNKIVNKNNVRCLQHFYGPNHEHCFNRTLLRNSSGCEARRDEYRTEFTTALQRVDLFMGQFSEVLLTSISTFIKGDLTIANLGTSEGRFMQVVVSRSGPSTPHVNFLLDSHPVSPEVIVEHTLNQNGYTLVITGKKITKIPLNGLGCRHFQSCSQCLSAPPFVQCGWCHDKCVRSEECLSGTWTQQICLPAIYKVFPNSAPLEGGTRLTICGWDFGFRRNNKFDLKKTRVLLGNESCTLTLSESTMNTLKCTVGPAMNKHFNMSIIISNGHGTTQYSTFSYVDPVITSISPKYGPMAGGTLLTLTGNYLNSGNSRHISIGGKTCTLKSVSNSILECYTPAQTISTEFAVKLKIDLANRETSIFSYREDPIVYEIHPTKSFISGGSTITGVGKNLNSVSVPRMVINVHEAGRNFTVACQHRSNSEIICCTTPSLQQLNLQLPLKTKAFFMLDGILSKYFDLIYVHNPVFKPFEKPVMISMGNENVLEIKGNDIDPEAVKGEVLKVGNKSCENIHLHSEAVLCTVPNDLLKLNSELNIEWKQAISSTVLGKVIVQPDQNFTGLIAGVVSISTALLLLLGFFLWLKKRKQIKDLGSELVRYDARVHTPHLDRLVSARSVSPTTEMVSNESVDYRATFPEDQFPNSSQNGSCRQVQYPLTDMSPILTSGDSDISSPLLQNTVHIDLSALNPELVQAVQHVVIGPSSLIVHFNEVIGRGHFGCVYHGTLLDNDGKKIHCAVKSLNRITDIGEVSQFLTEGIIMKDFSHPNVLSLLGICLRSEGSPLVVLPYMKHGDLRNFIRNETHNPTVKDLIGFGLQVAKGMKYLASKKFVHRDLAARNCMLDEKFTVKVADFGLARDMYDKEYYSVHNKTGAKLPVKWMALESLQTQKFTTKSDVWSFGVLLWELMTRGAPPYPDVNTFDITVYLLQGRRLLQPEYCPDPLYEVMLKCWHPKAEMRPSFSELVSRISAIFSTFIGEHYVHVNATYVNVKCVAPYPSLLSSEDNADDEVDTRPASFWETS

EC50 (concentration of peptide showing 50% activity of the signal induced by HGF, A431 cells, read-out: C-Met Agonist Activity (C50; nM)) [nM]	Compound	C-Met Agonist Activity (2 or 1)
2.37	CCCCC[C@@H]1NC(=O)[C@H](CC(=O)O)NC(=O)[C@H](CC(=O)O)NC(=O)[C@H](CC(=O)O)NC(=O)[C@H](Cc2ccccc2)N(C)C(=O)[C@H](CO)NC(=O)[C@H](C(C)C)NC(=O)[C@H](Cc2ccc(O)cc2)NC(=O)[C@H](C(C)C)NC(=O)[C@H](Cc2ccccc2)N(C)C(=O)CSC[C@@H](C(=O)NCCOCCOCCOCCOCCOCCOCCOCCOCCOCCOCCOCCOCCC(=O)NCCCC[C@H](NC(=O)CCOCCOCCOCCOCCOCCOCCOCCOCCOCCOCCOCCOCCNC(=O)[C@@H]2CSCC(=O)N(C)[C@@H](Cc3ccccc3)C(=O)N[C@@H](C(C)C)C(=O)N[C@@H](Cc3ccc(O)cc3)C(=O)N[C@@H](C(C)C)C(=O)N[C@@H](CO)C(=O)N(C)[C@@H](Cc3ccccc3)C(=O)N[C@@H](CC(=O)O)C(=O)N[C@@H](CC(=O)O)C(=O)N[C@@H](CC(=O)O)C(=O)N[C@@H](CCCCC)C(=O)N3CCC[C@H]3C(=O)N[C@@H](CCCNC(=N)N)C(=O)N[C@@H](Cc3c[nH]c4ccccc34)C(=O)N[C@@H](C)C(=O)N2C)C(N)=O)N(C)C(=O)[C@H](C)NC(=O)[C@H](Cc2c[nH]c3ccccc23)NC(=O)[C@H](CCCNC(=N)N)NC(=O)[C@@H]2CCCN2C1=O [Peptide 22] (I: {CH2CO}-[NMeF]VYVS[NMeF]DDD[Ahp(2)]PRWA[NMeC][PEG12]K-NH2 / II: {CH2CO}-[NMeF]VYVS[NMeF]DDD[Ahp(2)]PRWA[NMeC][PEG12]; amide I:17-II:C; thioether I:N-I:15, II:N-II:15)	–
–	14 ({CH2CO}-[NMeF]VYVS[NMeF]DDD[Ahp′]PRWQ[NMeC]; thioether N-15 (inferred); not fully specified; reading uncertain; also: conjugated moiety via linker) [Peptide 14]	2 (those showing more than 50% activation were described as 2)
–	11 ({CH2CO}-[NMeF]VYVS[NMeF]DDD[Ahp′]PRW[Abu][NMeC]; thioether N-15 (inferred); not fully specified; reading uncertain; also: conjugated moiety via linker) [Peptide 11]	2 (those showing more than 50% activation were described as 2)
–	15 ({CH2CO}-[NMeF]VYVS[NMeF]DDD[Ahp′]PRWV[NMeC]; thioether N-15 (inferred); not fully specified; reading uncertain; also: conjugated moiety via linker) [Peptide 15]	2 (those showing more than 50% activation were described as 2)
–	3 ({CH2CO}-FVYVS[NMeF]DDD[Ahp′]PRWS[NMeC]; thioether N-15 (inferred); not fully specified; reading uncertain; also: conjugated moiety via linker) [Peptide 3]	1 (those showing less than 50% activation as 1)
